Source: the nanobody polyreactivity screen of Harvey et al. (2022)

Assay: yeast display, Sf9 membrane polyspecificity reagent, FACS + sequencing; frameworks hold sequencing errors
In short: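 Synthetic nanobody libraries on Saccharomyces cerevisiae BJ5465 were galactose-induced for 36–48 hours, stained 1 hour at 4 °C with 10% biotinylated, detergent-solubilized Sf9 membrane reagent and enriched on streptavidin microbeads. FACS then separated cells into low and high (top ~1%) gates by anti-HA (expression) and streptavidin (reagent binding) fluorescence. Genes were colony-PCR amplified, MiSeq 2 × 250 sequenced and CDR-length filtered. A clone's polyreactivity label is that of its gate of origin.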

Row | Sequence | polyreactivity (PSR sort gate)
1 | QVQLVESGGGLVQAGGSLLLSCAASGNTFVNNAMGWYRQAPGKERELVAAISRRGGTTYYADSVKGRFTISRDNAKNTVYLKMKSLKPEDTAVYYCAKYGYAFDSWGQGTQVTVSS | high polyreactivity
2 | QVQLVESGGGLVQAGGSLLLSCAASGRIFAYYAMGWYRQAPGKERELVAGISQRGSRTYYADSVKGRFTISRDNAKNTVYLQMNSLKPEDTAVYYCAARDRRSVTMDYWGQGTQVTVSS | high polyreactivity
3 | QVQLVESGGGLVQAGGSLLLSCAASGRIFRPYAMGWYRQAPGKERELVAAISSSGGSTYYADSVKGRFTISRDNAKNTVYLEMNSLKPEDTAVYYCAARITQISYGSEIEHPYYYWGQGTQVTVSS | high polyreactivity
4 | QVQLVESGGGLVQAGGSLLLSCAASGRILDFYDMGWYRQAPGKERELVAAITNSASTYYADSVKGRFTISRDNAKNTVYLQMNRLKPEDTAVYYCNADLYRGAYYGTYWSDWGYDYWGQGTQVTVSS | low polyreactivity
5 | QVQLVESGGGLVQAGGSLLLSCAASGSIFGSNAMGWYTQATVKERELVAVITNGGRTYYADSVKGLFTISRDNAKNTVYLQMNSLKPEDTAVYYCAASRVYGWYGSYSTYGSVGQGTQVTVSS | high polyreactivity
6 | QVQLVESGGGLVQAGGSLLLSCAASGSIFGWYAMGWYRQAPGKERELVAAISSSDGSTYYADSVKGRFTISRDNPKNTVYLQMNSLKPEDTAVYYCATDSAFTYAQYDYWGQGTQVTVSS | low polyreactivity
7 | QVQLVESGGGLVQAGGSLLLSCAASGTTFDRNAMGGYRQAPGKEREIVDAIRFGGGSTNYADSVKGRFTISRDNAKNTVYLLMNSLKPEDTAVYYCNAERIWRYKYGYDYWGQGTQVTVSS | high polyreactivity
8 | QVQLVESGGGLVQAGGSLLLSCDASGGTLDYYVMGWYRQAPGKERELVAAISSSGGSTYYADSVKGRFTISRDNAKNTVYLQMNCLNPEDTAVYYCAGDPSPYGDEYDYWVQGTQVTVSS | low polyreactivity
9 | QVQLVESGGGLVQAGGSLLLSCSASGRIFGVNAMGGYRQAPGKERELVAAISAGGGNTYYADSVKGRFTISRDNAKNTVYLQMNSLKPEDTAVYYCNVQRSLRMDYWGQGTQVTVSS | high polyreactivity
10 | QVQLVESGGGLVQAGGSLLLSCSASGRTFAYNAMGLYRQAPGKEREWVASISSSDTSTYYADSVNGRFTISRDNAKNTVYLQMNSLKPVDTAVYYCAADGHPFKGVRYYYWGQGTQVTVSS | low polyreactivity
11 | QVQLVESGGGLVQAGGSLLLTCAASSSTFRPKVMGWYRQAPGKERELVAAISNGGRTYYADSLKGRFTISRDNAKNTVYLQMNSLKPEDTAVYYCAARGKTTKYNYWGQGTQVTVSS | high polyreactivity
12 | QVQLVESGGGLVQAGGSLPLRCPASGSIFYQYAMGWYRQAPGKVRELVARIRGSTGTTYYADSVKGRFTISRDNAKNTVYLHMNSLKPEDTAVYYCNAARYQGRSRFDYWGQGSQVTVSS | high polyreactivity
13 | QVQLVESGGGLVQAGGSLPLSCAASGITLYGYAMGWNRQAPGNERELVPAISRSGSSTYYADSVKGRFTISRDNAKNTVYLQMNILKPEDTAVYYCNVYSGRYWESHKFDSWGQGTQVTVSS | high polyreactivity
14 | QVQLVESGGGLVQAGGSLPLSCAASGNIFVTYDMGWYRQAPGKERELVASISWNGGSTNYADSVRGLFTISRDNAKNTVYLQMNSLKPEDTAVYYCAAEYWTSYADYRYDYWGQGTQVTVSS | low polyreactivity
15 | QVQLVESGGGLVQAGGSLPLSCAASGRIFNGYAMGGYIQAPGKERELVAAICWRGGRTYYADSVKGRFTISRDNAMNTVYLQRNSLKAEDTAVYYCNKDLPPQGQLRNMYYWGQGTIVTVSS | high polyreactivity
16 | QVQLVESGGGLVQAGGSLPLSCAASGRIFNYYTMGWYRPAPGKERELVAAISTRGGRTYYADSVKGRFTISRDNAKNSVYFQMNSLKPEDTAVYYCARDIRIRIVYDGIYNYWGQGTQVTVSS | high polyreactivity
17 | QVQLVESGGGLVQAGGSLPLSCAASGRIFYTYAMGWYRQAPGKERELVAAITYRGGSTYYADSVKGRFTISRDNAKNTVYLQMNILIPEDTAVYYCAARPGRGPDSRWRYKYDYWGQGTQVTVSS | high polyreactivity
18 | QVQLVESGGGLVQAGGSLPLSCAASGRTIDHYAMGWYRQAPGKERELVAAITSGGSTYYADSVKGRFTISRDNAKNTVYLQMNSLKPEDTAVYYCNKDSSFWGYYIAQVNERDYWGQGTQVTVSS | low polyreactivity
19 | QVQLVESGGGLVQAGGSLPLSCAASGRTYRYYAMGWYRQAPGKERELVAAITRRSGNTNYADSVKGRFTISRDNAKNTVYLQINSLKPEDTALYYCAAVGAKGARYDYWGQGTQVTVSS | high polyreactivity
20 | QVQLVESGGGLVQAGGSLPLSCAASGSIFQLNAMGWYRQAPGKERELVGSIRDGGSTSYADSVKGRFTISRDNAKNTVYLQMNSLKPADTAVYYCADLKLYIYDYWGQGTQVTVSS | high polyreactivity
21 | QVQLVESGGGLVQAGGSLPLSCAASGSIFTYNTMGSYRQAPGKERELVATISWSGGRTYYADSVKGRVTISRDNAKNTVYLQMNSLKPEDTAVYYCAAVYYSYYGYFLPYGYWGQGTQVTVSS | high polyreactivity
22 | QVQLVESGGGLVQAGGSLPLSCAASGSIFVGYAMGWYRQAPGKERELVAAITNSGGRTYYADSVKGRFTISRDNAKNTVYLQMNSLKPEDTAVYYCNRVTGKYRYWVGFEYWGQGTQVTVSS | high polyreactivity

Row | Sequence | polyreactivity (PSR sort gate)
23 | QVQLVESGGGLVQAGGSLPLSCASSGSTFSTYAMGWYRQAPGKERELVAAIRWSGGSTYYADSVKGRFTLSRDNAKNTVYLLMTSLKPEDTAVYYCAKGIRRWYGGSDYWGQGTQVTVSS | low polyreactivity
24 | QVQLVESGGGLVQAGGSLPLTCAASGRILRAYAMGWYRQAPGNEMELVAAISFSGGSTYYADSVKGRFTISRDYAKNYVYLQINSLKPEDTAVYYCNALYTSYYRPSCMGYWGQGTQVTVSS | high polyreactivity
25 | QVQLVESGGGLVQAGGSLRFICAASGFSLYHYAMGWYRQAPGKERELVAAITTSGSRTYYADSVKGRFTISRDTAKITVYLQMNSLKPEDTAVYYCNAVASSTEYDYWGQGTQVTVSS | high polyreactivity
26 | QVQLVESGGGLVQAGGSLRFICAASGNTLNYYTMGWYRQAPGKERELVAAISSSGGSTYYADSVKGRFTISRDNAKNTVYLQMNSLQPEDTAVYYCNASVINEMNYWGQGTQVTVSS | low polyreactivity
27 | QVQLVESGGGLVQAGGSLRFSCAASGDTFTSYAMGWYRQAPGKERELVAAISRRGGSTYYADSVKGRFTISRDNAKNTVYLQMNSLKPEDTAVYYCAAKSYSYTEFDYWGQGTQVTVSS | high polyreactivity
28 | QVQLVESGGGLVQAGGSLRFSCAASGFIFVSNAVGWYRQAPGKERELVAAISRRGGRTYYADSVKGRFTISRDNEKNTVYVPMNSLKPEDTAVYDCAADQYRVSHQWYDYWGQGTQVTVSS | high polyreactivity
29 | QVQLVESGGGLVQAGGSLRFSCAASGFNFDQNAMGWYRQAPGQERELVAAITRRGGRTYYADSVKGRFTISRDNAKYTVYLQMNSLKPEDTAVYYCAALLPVHHRGYYWGQGTQVTVSS | high polyreactivity
30 | QVQLVESGGGLVQAGGSLRFSCAASGFTIVGNTMGWYRQAPGKERELVASINTNGGSTYYADSVKGRFTISRDNAKNTVYLQMNSLKPEDTAVYYCAKDREDTYFEYEYDYWGQGTQVTVSS | low polyreactivity
31 | QVQLVESGGGLVQAGGSLRFSCAASGGIFFRNAMGWYRQAPGKERELVAVISSGGSTYYADSVKGRFTISRDNAKNTVYLQMNSLKPEDTAVYYCAARRKRPVYTVTLHYPYNYWGQGTQVTVSS | high polyreactivity
32 | QVQLVESGGGLVQAGGSLRFSCAASGGTFFLNVMGWYRPAPGKERELVAAITNSAGSTYYADSVKGRFTISRDNAKNTVYLQMNSLKPEDTAVYYCATDWSKVAGYTSYDYWGQGTQVTVSS | low polyreactivity
33 | QVQLVESGGGLVQAGGSLRFSCAASGITFVYYARGWYRQAPGKERELVAAITRSGDSTYYADSVKGRFTISRDNAKNTVYLQMNSLKPEDTAVYYCAAESYYSTYQVEYYDWGQGTQVTVSS | high polyreactivity
34 | QVQLVESGGGLVQAGGSLRFSCAASGRIFYPYAMGWYRQAHGKERELVAAIRRSGVDTYYADSVKGRFTISRDNAKNTVYLQMNSLKPEDTAVYYCAADPYWFFPHYDSWGQGTQVTVSS | low polyreactivity
35 | QVQLVESGGGLVQAGGSLRFSCAASGSIFKGNVMGWYRQAPGKERELVAAITWSGGSTYYADSVKGRFTISRDNAKNTVSLQMNSLKPEDTAVYNCNTRWILGRRFYYWGQGTQVTVSS | high polyreactivity
36 | QVQLVESGGGLVQAGGSLRFSCAASGSIFWSNAMGWYRQAPGKERELVAAITTSDGSTYYADSVKGRFTISRDNAKNTVYLQMNSLKPEDTAVYYCAADTYYVSYGYYYWGQGTQVTVSS | low polyreactivity
37 | QVQLVESGGGLVQAGGSLRFSCAASGSSFGANTMGWYRQAPGKERELVAGITSGARTYYADSVKGRFTISRDNAKNTVYLQMNSLKPEDTAVYYCAAKYAWRRYGYWGQGTQVTVSS | high polyreactivity
38 | QVQLVESGGGLVQAGGSLRFSCAASGSTFFGNTMGWYRQAPGKERELVAAISRRGGSTYYADSVKGRFTISRDNAKNTVYLQMNSLKPEDTAVYYCAKYYHSGGYTPGKYDYWGQGTQVTVSS | high polyreactivity
39 | QVQLVESGGGLVQAGGSLRFSCAASGSTFGTYAMGWYRQAPGKERELVAAISWSGGSTYYADSVKGRFTISRDNAKNTVYLQMNSLKPEDPAVYWGQGTQVTVSS | low polyreactivity
40 | QVQLVESGGGLVQAGGSLRFSCAASGSTFTRYAMGWYRQAPGKERELVAAISWSGGITYYADSVNGRFTISRDNAKNTVYLQMNSLKPEDTAVYYCAAKRRYTRGGYGVDYWGQGTQVTVSS | high polyreactivity
41 | QVQLVESGGGLVQAGGSLRFSCAASGSTVYSYAMGWYRQAPGKERELVAAITRGGRTYYADSVKGRFTISRDNAKNTVYFKMNSLKPEDTAVYSCKVVTKFTGRGYDYWGQGSQVTVSS | high polyreactivity
42 | QVQLVESGGGLVQAGGSLRFSCAASGSTYYYNAMGWDRQAPGKERELVASISWSGGSTRYADSVKGRFTISRDNAKNTVYLQMNSLKPEDTAVYYCAARYILSKYGSGVRYNYWGQGTQVSVSS | high polyreactivity
43 | QVQLVESGGGLVQAGGSLRFSCAASRRTFANNAMGWYRQAPGKERELVAAISSGGNTYYADSVKGRFTISRDNAKNTVYLQMNSLKPEDTAVYYCAARYWIYRSEYDYWGQGTQVTVSS | high polyreactivity
